Measured values reported in the Human Domainome abundance scans (Beltran et al. 2025).

B1: Serine/threonine-protein kinase LATS1, residues 98 to 141; numbered along this chain, O95835 (parent)
chain: TSEVNPQMLQDLQAAGFDEDMVIQALQKTNNRSIEAAIEFISKM
B2: Histone H1t, residues 44 to 112; numbered along this chain, P22492 (parent)
chain: VSKLITEALSVSQERVGMSLVALKKALAAAGYDVEKNNSRIKLSLKSLVNKGILVQTRGTGASGSFKLS

Variants of: B1
Assay: abundance fitness (aPCA) (normalised: wild type 0, dead -1); higher = more abundant; growth selection in yeast, the domain comes from the species named
Conditions: Homo sapiens

Abundance fitness: each site, then its substitutions
M8: C -0.778; R -0.597; S -0.543; Y -0.151; V -0.508
N5: T -0.628; M -0.951; I -0.82; D -0.028; K -0.638; H -0.211; L -0.878; F -1.21; E -0.442
F17: Q -0.366; L -0.342; C -0.488
L26: F -0.54; G -0.358; N -0.377; D -0.354; V -0.571; K -0.424; P -0.341; I -0.292
L12: Q -0.594; G -0.57; P -0.644; V -0.562; D -0.469; S -0.616
D18: T -0.204; P -0.113; F -0.564; S -0.169; N -0.21; W -0.853; E 0.036; K -0.117; Y -0.837; R -0.22
N31: P -0.459; G -0.155; D -0.506; A -0.416; C -0.139
Q7: N -0.227; S -0.149; P -0.796; F -0.549; I -0.223; V -0.147
I38: W -0.339; K 0.055; E -0.007; V -0.024; M -0.016; P -0.147
E3: Q -0.138; L -0.326; W -0.116; V -0.802; I -0.529
A37: Y -0.762; N -0.446; R -0.649; K -1.03
D20: K 0; R -0.142; C -0.208; L -0.288; Y -0.535; W -0.268
A25: M -0.887; N -0.622; G -0.443; T -0.741; W -0.728; Y -0.554; E -0.668; Q -0.697
T1: R -0.072; V -0.148; L -0.303; C -0.098; W -0.197; E 0.019; P -0.213; M -0.11; Y -0.26; G 0.023
L9: S -0.125; Q -0.124; Y -0.421; H -0.35; F -0.082; E -0.273
K43: C -0.156; Y -0.194; T -0.004; A 0.034; R -0.027
S2: N -0.057; R -0.054; H -0.168; V -0.311; C -0.154; W -0.174; Q -0.035; T 0.075
V4: F -0.357; H -0.262; W -0.561; T -0.218
M44: C -0.037; W -0.232; G -0.063; Q 0.055; E 0.052
Q27: G -0.292; L -0.068; T -0.007; P -0.597; D -0.151; K 0.068; A -0.125; S -0.071
N30: V -1.1; Q -0.055; D -0.093; R -0.103; H -0.206; M -0.553
I41: E -0.165; Q -0.286; S -0.217; F -0.525; W -0.648; A -0.282; Y -0.434; D -0.11
S33: H -0.934; N -0.56; V -1.29; L -1.25; F -0.628; Y -0.735
E39: P -0.483; V -0.717; R -0.224; Q -0.166; K -0.115
P6: M 0.005; A 0.037; V -0.032; R 0.039; Q 0.081; E 0.07; W -0.201; F -0.115
Q24: Y -0.222; F 0.019; D -0.005; P -0.323; C -0.043; S -0.196; E 0.083
D11: H -0.182; L -0.153; I -0.083
S42: Y -0.142; F -0.229; T 0.103; R 0.048; P -0.401; C -0.258; G -0.002
M21: Q 0.077; H -0.294; F -0.291; C -0.126; G -0.363; A -0.019; T 0.088; R -0.268; L 0.032; S -0.038; Y -0.33
Q10: G -0.231; P -1; M -0.128; A 0.015; V -0.253; N -0.105
A36: F -0.77; K -0.21; D -0.068; Q -0.267; Y -0.632; H -0.206; P -0.36
I34: N -0.123; P -0.051; Q -0.09; H -0.077; D -0.257; V 0.026
V22: C 0.11; L -0.538; M -0.674; Y -0.824; A 0.18
E35: F -0.468; T -0.158; H -0.151; S -0.115; V -0.468; N -0.204; K -0.169
I23: F -0.261; Q -0.158; S -0.183; T -0.041; N -0.104; M -0.055; A -0.115
A15: G -0.492; Q 0.042; S -0.309; V -0.429; I -0.238; N -0.309; W -0.442
A14: R -0.095; K 0.007; L -0.188; Y -0.339; T -0.206; D 0.04; F -0.455; V -0.308
Q13: T -0.002; E -0.18; V 0.067; W -0.851; R 0.059; M 0.046
E19: T 0.046; L -0.26; W -0.75; A -0.097; Q -0.012
F40: V -0.097; T -0.16; W 0.075; Q -0.068; E 0.103; G -0.163
T29: A -0.646; E -0.529; S -0.463; P -0.524; V -0.191; D -0.902
R32: G -0.185; H 0.045
K28: Q -0.024; Y -0.027; E 0.034; V -0.163; G -0.08; L -0.366
G16: M -0.962; S -0.88; E -0.617; H -0.275

Variants of: B2
Assay: as above
Conditions: Homo sapiens

Abundance fitness of substitutions, site by site:
I5: F -0.372; P -1.16; V -0.267; C -0.415; A -0.705; M -0.33; N -0.664; Q -1.28; G -0.942; H -1.46; E -1.13; R -1.24; D -1.04; T -0.985; L -0.244
S2: A -0.404; C -0.438; Y -0.185; Q -0.344; E 0.566; V -0.652; F -0.383; T -0.145; K 0.251; M -0.316; L -0.398; N 0.051; P -0.456; I -0.234; D 0.251; H -0.474
L4: W -0.506
V1: S -0.512; K -0.403; I 0.005; F -0.054; Y -0.269; A -0.12; H -0.877; P 0.071; T -0.337; M -0.16; N -0.557; L -0.536
K3: I -0.656; L -0.474; G -0.45; D -0.144; Y -0.717; E 0.001; C -0.411; S -0.297; F -0.595; W -0.691; M -0.583; N -0.139; R -0.251; V -0.431
